Results taken from the supplement of paper PMC12042874.
± gives the uncertainty stated by the source.

Assay: amyloid nucleation score (Sup35N fusion, yeast selection) (log enrichment); library NNK3; higher = more nucleation; inactive = no reads after selection
Summary of the method: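 Output and input plasmid inserts were sequenced by Illumina after psi-negative yeast carrying Sup35N fused to peptides of 20 random codons had been induced 24 hours with 100 μM copper sulfate and grown 7 days at 30°C on medium lacking adenine and uracil. The nucleation score is the DiMSum log enrichment of output over input reads, centred on the mode score of non-aggregating sequences. Sequences with under 100 input reads were excluded.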

Amyloid nucleation score, 0.035 ± 0.48:
IFIGVGNVGEVLVIYSWQRN

Amyloid nucleation score, 1.19 ± 0.11:
IGIINMSLN

Amyloid nucleation score, 1.84 ± 0.067:
IFFQCNVAMQKDSDAKGTYV

Amyloid nucleation score, 1.75 ± 0.12:
INFVYSHM

Amyloid nucleation score, 2.12 ± 0.068:
IFVNSTVLFLMHVCCLSVIS

Amyloid nucleation score, 1.73 ± 0.073:
HYAASSLYLTATHGFICSMC

Amyloid nucleation score, 2.42 ± 0.077:
IKMSLAELTIFRCLWDCPNS

Amyloid nucleation score, -0.317 ± 0.93:
IDVKSLSWKMYRRLGTIPYT

Amyloid nucleation score, inactive:
HYAAFFYLLINMTGHAHFLK
HYCMRN
HYEVRGVLFAMPPCGNI
HYLLACSYDRFFSRSSAYSL
HYLRHHIAILSLATGLMETE
IADDQTYLLVLLFYFIKKLN
IAFATFVVTFIMMEEMFFKN
IAGLSNNTTDGLLRISHRYL
IAKLVKFEEFRMQDCYIDWL
IALKSGMVCRYRYHIGGRIS
IALLHQKHIG
IALLLQSQLMRHGGFASWNR
IALLWQAHLWRHDWKFYFDS
IANLRAFILFMCDMKSTNPK
IAYKFWGSNVLDR
ICDDMVGVC
ICGCPTYCNEANLLLERN
ICGMLR
ICPSNFWMFCSCYWSMLRNF
ICTECAYFSTWRHSMCITWG
IDAYPVWELITLFLFGLMLY
IDFIVLSSL
IDKVLGPKVPAHRTSGGLSK
IDMFGSWFSCILGEKNQLGS
IDNMMYVV
IEDAMVFLGTNSQTICLFNV
IEFFEYVCVMFFCC
IEGTAMTVTFTFNPYPFHET
IELERMNGL
IELRM
IERLTCIYRSFESHLAGFVG
IEVIYGV
IEVYAGTF
IFILRLDIIALLNVTGIRIW
IFNWFDWIFRFSTTSPECLT
IFVSCCLLRLSAGWVVKLIR
IGKSRFKCMSVVRSRFT
IGLSSHISWYE
IGPVTLKERETRTP
IGSNRRSFEVCTYIASKIPL
IGSPSHLYKYHCVGFRVSSQ
IGTLSNLLTKGCKYYGVNIC
IGVLCALDGISRIAFFSLLL
IGWYYSYITRKSENWVLVAL
IHFLNWSARM
IHGPGCRSCERSSVGLRSGL
IHPVNLRVLSFGHIWCWYLR
IIFDR
IINLQSWQHLLNRHGTELSV
IIPTD
IIQALVF
IIQDYGTVVD
IIRVLNWYHYIEAKTLNSLR
IITYKVS
IIVVCDSDRLFLPNQPPNVI
IKFSYKCS
IKIHYF
IKPSAS
ILADSCGV
ILCLVAVLGASRGYVMAEWY
ILCSSDCDSYSLQPLFGFPC
ILDTEHYLMYKVSPAVASLS
ILIRHDAMNRYPQC
ILKKRFRMVPLK
ILLCRKYWFFRFTMVV
ILLIWCIFTSAKFQQTSFMT
ILLWFSTVNWSFANEPGQIL
ILRFMYAVHDISFFYLIVCF
ILRLTCLIAKHTRAVNMDLQ
ILRYVLAHSVLKTCLMQGLA
ILSITC
ILSLAGSKWCWEKYRMGS
ILSLPRRNYSKTVFNRLKAE
ILVFR
ILVGNFSILWY
ILVIIKNHFVFFAGR
ILVLRHA
ILVTASTAYLDVRVKWIQTF
ILYLVR
IMLKL
IMNHLLSRVVCFLDKIVHMG
IMSKVASDALIPVTSSMSTG
IMSPTFGFQMLWPGPRHRLL
IMTSFPGEFPLSLHNMCASC
IMYFMLMLGSSRMSFTKLMG
INAQS
INFHMS
INGSGSAIYGRITRGLNGDS
INLPDASS
INMRFIQKRMFVYLNYSWYA
INQGLTWMLDRPSKFAFVAV
INQYRPAPIQEAPLF
INRHGCIGVHTLSLMLRPCV

Amyloid nucleation score, 1.57 ± 0.13:
IKSLFVGGFSLNVTPTHKGR

Amyloid nucleation score, 2.28 ± 0.09:
IFLLAVNSGINVTGCPLPKG

Amyloid nucleation score, 0.602 ± 0.14:
INDLKGVVLNIWIKYIV

Amyloid nucleation score, 0.956 ± 0.31:
ILSNDEFTCKFCCSCSYRGG

Amyloid nucleation score, 0.404 ± 0.35:
ICSYTSVYSRKW

Amyloid nucleation score, 0.681 ± 0.27:
IILFINATGRIRSWCDEYGL

Amyloid nucleation score, 4.44 ± 0.057:
ILKSTELWKRESQFSQRVGA

Amyloid nucleation score, -0.325 ± 0.3:
INGDMFSSFENVCYYEVSSL

Amyloid nucleation score, 0.605 ± 0.19:
ILFSISSVMF

Amyloid nucleation score, 1.74 ± 0.11:
IMFSILSVMML

Amyloid nucleation score, -0.152 ± 0.47:
IILTIGRMGLFNMAK

Amyloid nucleation score, -0.101 ± 1.1:
IMKKESVAHHVNIGIHASLT

Amyloid nucleation score, 2.55 ± 0.066:
IFGCFSCSVSMFIDNAVMSL

Amyloid nucleation score, 1.86 ± 0.081:
IGNAFFETRLVFGRH

Amyloid nucleation score, 0.799 ± 0.17:
IGCWTSYSWNRSRKFYMQQE

Amyloid nucleation score, 2.52 ± 0.064:
INYIIVSGSAGIRMTGK

Amyloid nucleation score, -0.307 ± 0.88:
HYKLSSMVSVYLLTIL

Amyloid nucleation score, 0.341 ± 0.31:
IIASDLSLSVVNVFN

Amyloid nucleation score, -0.659 ± 1.8:
ILLFYLSLKRCSLQARGLDS
